# Where no end group is shown, it is not given here.
# Molecular target: Kv1.3 voltage-gated potassium channel on T cells in human whole blood (human) (UniProt P22001)
# Assay: cell-based or functional assay
# Sequence of Kv1.3 voltage-gated potassium channel on T cells in human whole blood (human) (P22001 whole entry): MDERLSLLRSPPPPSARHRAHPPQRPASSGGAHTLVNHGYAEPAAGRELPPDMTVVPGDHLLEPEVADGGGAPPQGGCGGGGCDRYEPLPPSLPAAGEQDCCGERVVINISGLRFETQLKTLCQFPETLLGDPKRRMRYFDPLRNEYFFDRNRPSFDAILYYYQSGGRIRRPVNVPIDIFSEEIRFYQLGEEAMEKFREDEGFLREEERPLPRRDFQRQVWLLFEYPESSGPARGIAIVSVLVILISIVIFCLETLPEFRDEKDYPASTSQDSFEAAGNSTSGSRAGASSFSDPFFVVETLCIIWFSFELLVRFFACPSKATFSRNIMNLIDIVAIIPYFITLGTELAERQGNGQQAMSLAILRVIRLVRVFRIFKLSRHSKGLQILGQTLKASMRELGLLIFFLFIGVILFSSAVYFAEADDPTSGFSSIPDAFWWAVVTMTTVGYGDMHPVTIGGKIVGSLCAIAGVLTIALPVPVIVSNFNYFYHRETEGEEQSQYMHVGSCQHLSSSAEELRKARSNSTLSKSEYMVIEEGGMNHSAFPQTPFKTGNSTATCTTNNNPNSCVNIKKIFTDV
Binder,"Potency Relative to ShK (WB, IL2) [fold]",WB (IFNg) IC50 [nM],WB (IL-2) IC50 [nM]
"GGGGSGGGGSRSCIDTIPKSRCTAFQCKHSMKYRLSFCRKTCGTC (Fc fusion, not fully specified (N-terminus); ends and bridges not checked; also: homodimer via Fc) [Bivalent Fc-L10-ShK[1-35] homodimer]",5.76,0.32,0.386
"GGGGSGGGGSSCIDTIPKSRCTAFQCKHSMKYRLSFCRKTCGTC (Fc fusion, not fully specified (N-terminus); ends and bridges not checked; also: homodimer via Fc) [Bivalent Fc-L10-ShK[2-35] homodimer]",8.73,2.29,0.585

# From US20130189283A1
